Molecular target: HBsAg on HBV virions (HBV from HepDE19 cell supernatant) (Hepatitis B virus)
Experiment: cell-based or functional assay

libivirumab (antibody) showed an IC50, in vitro HBV neutralization on HepG2-NTCP cells (ELISA read-out) of 0.035 µg/mL and an IC50, in vitro HBV neutralization on HepG2-NTCP cells (HBcAg immunofluorescence read-out) of 0.128 µg/mL.

— patent US20220315645A1
